Substrate in data set [1]: COc1cc(CO)ccc1O
As to the kind of experiment: purified protein. The format is biochemical, Rhodococcus jostii. The following applies: 50 mM potassium phosphate, pH 7.5, 25 °C, O2 as electron acceptor.

Substrate in data set [2]: COc1cc(CO)ccc1O
Briefly: purified protein. The format is biochemical, Penicillium simplicissimum. The following applies: 50 mM potassium phosphate, pH 7.5, 25 °C, O2 as electron acceptor.

B1: EUGO-His (eugenol oxidase) (Rhodococcus jostii RHA1) (protein)
chain: MTRTLPPGVSDERFDAALQRFRDVVGDKWVLSTADELEAFRDPYPVGAAEANLPSAVVSPESTEQVQDIVRIANEYGIPLSPVSTGKNNGYGGAAPRLSGSVIVKTGERMNRILEVNEKYGYALLEPGVTYFDLYEYLQSHDSGLMLDCPDLGWGSVVGNTLDRGVGYTPYGDHFMWQTGLEVVLPQGEVMRTGMGALPGSDAWQLFPYGFGPFPDGMFTQSNLGIVTKMGIALMQRPPASQSFLITFDKEEDLEQIVDIMLPLRINMAPLQNVPVLRNIFMDAAAVSKRTEWFDGDGPMPAEAIERMKKDLDLGFWNFYGTLYGPPPLIEMYYGMIKEAFGKIPGARFFTHEERDDRGGHVLQDRHKINNGIPSLDELQLLDWVPNGGHIGFSPVSAPDGREAMKQFEMVRNRANEYNKDYAAQFIIGLREMHHVCLFIYDTAIPEAREEILQMTKVLVREAAEAGYGEYRTHNALMDDVMATFNWGDGALLKFHEKIKDALDPNGIIAPGKSGIWSQRFRGQNL
notes: E. coli TOP10; covalent FAD; EUGO dimeric
By Km is commonly meant the concentration of substrate that gives half-maximal velocity. The kcat is the number of substrate molecules converted per active site and unit of time at saturation. As usually defined, the kcat/Km is the second-order rate constant that governs catalysis at low substrate concentration. For B1, in “purified protein [1]”, the Km came out at 47 ± 5 µM, the kcat is 8 ± 0.2 s⁻¹ and the kcat/Km was found to be 170000 M⁻¹ s⁻¹.

B2: His-VAO (vanillyl alcohol oxidase) (Penicillium simplicissimum) (protein)
chain: MSKTQEFRPLTLPPKLSLSDFNEFIQDIIRIVGSENVEVISSKDQIVDGSYMKPTHTHDPHHVMDQDYFLASAIVAPRNVADVQSIVGLANKFSFPLWPISIGRNSGYGGAAPRVSGSVVLDMGKNMNRVLEVNVEGAYCVVEPGVTYHDLHNYLEANNLRDKLWLDVPDLGGGSVLGNAVERGVGYTPYGDHWMMHSGMEVVLANGELLRTGMGALPDPKRPETMGLKPEDQPWSKIAHLFPYGFGPYIDGLFSQSNMGIVTKIGIWLMPNPRGYQSYLITLPKDGDLKQAVDIIRPLRLGMALQNVPTIRHILLDAAVLGDKRSYSSRTEPLSDEELDKIAKQLNLGRWNFYGALYGPEPIRRVLWETIKDAFSAIPGVKFYFPEDTPENSVLRVRDKTMQGIPTYDELKWIDWLPNGAHLFFSPIAKVSGEDAMMQYAVTKKRCQEAGLDFIGTFTVGMREMHHIVCIVFNKKDLIQKRKVQWLMRTLIDDCAANGWGEYRTHLAFMDQIMETYNWNNSSFLRFNEVLKNAVDPNGIIAPGKSGVWPSQYSHVTWKL
notes: N-terminal 6xHis tag plus single Gly, tag kept; codon-optimised, E. coli BL21; covalent FAD; VAO predominantly octameric
For B2, in the data set “purified protein [2]”, the Km came out at 129 ± 15 µM, the kcat came to 2.5 ± 0.1 s⁻¹ and the kcat/Km was found to be 19000 M⁻¹ s⁻¹.

(Values after PMC6017454, “A Xylenol Orange-Based Screening Assay for the Substrate Specificity of Flavin-Dependent para-Phenol Oxidases” (Molecules : A Journal of Synthetic Chemistry and Natural …, 2018).)
